Test results taken from PMC5803408 (Structure (London, England : 1993), 2018).
Positions count from the first letter of the chain named. Names and notes keep the numbering of the source.

T1: human UHRF1 TTD domain (residues 126-284) N194A (human, UniProt Q96T88 126-284, N194A)
T1 sequence (looked up): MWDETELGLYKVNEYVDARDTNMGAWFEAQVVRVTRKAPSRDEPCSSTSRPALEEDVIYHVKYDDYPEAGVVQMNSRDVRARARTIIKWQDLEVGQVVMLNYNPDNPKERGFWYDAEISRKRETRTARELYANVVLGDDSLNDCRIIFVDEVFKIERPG

T2: human UHRF1 TTD domain (residues 126-284) N147A (human, UniProt Q96T88 126-284, N147A)
T2 sequence (looked up): T1 sequence (looked up) with N22A, A69N

T3: human UHRF1 TTD-PHD dual domains (residues 126-366) (human, UniProt Q96T88 126-366)
T3 sequence (looked up): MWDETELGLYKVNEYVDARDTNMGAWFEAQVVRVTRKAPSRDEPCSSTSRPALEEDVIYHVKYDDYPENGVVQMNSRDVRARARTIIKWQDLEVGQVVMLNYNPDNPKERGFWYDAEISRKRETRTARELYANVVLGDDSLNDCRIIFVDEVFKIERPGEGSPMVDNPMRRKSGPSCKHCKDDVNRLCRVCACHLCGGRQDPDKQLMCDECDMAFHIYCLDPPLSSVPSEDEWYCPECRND

T4: human UHRF1 TTD domain (residues 126-284) D142A/E153A (human, UniProt Q96T88 126-284, D142A | E153A)
T4 sequence (looked up): T1 sequence (looked up) with D17A, E28A, A69N

B1: human UHRF1 PBR peptide (residues 634-665) (peptide, UniProt Q96T88 634-665, looked up)
chain: EGGFASPRTGKGKWKRKSAGGGPSRAGSPRRT
B2: K644E/K646E: UHRF1 with K644E/K646E mutations in the PBR sequence (previous study) (protein, UniProt Q96T88 1-793, looked up, variant K644E K646E)
E3 ubiquitin-protein ligase …: MWIQVRTMDGRQTHTVDSLSRLTKVEELRRKIQELFHVEPGLQRLFYRGKQMEDGHTLFDYEVRLNDTIQLLVRQSLVLPHSTKERDSELSDTDSGCCLGQSESDKSSTHGEAAAETDSRPADEDMWDETELGLYKVNEYVDARDTNMGAWFEAQVVRVTRKAPSRDEPCSSTSRPALEEDVIYHVKYDDYPENGVVQMNSRDVRARARTIIKWQDLEVGQVVMLNYNPDNPKERGFWYDAEISRKRETRTARELYANVVLGDDSLNDCRIIFVDEVFKIERPGEGSPMVDNPMRRKSGPSCKHCKDDVNRLCRVCACHLCGGRQDPDKQLMCDECDMAFHIYCLDPPLSSVPSEDEWYCPECRNDASEVVLAGERLRESKKKAKMASATSSSQRDWGKGMACVGRTKECTIVPSNHYGPIPGIPVGTMWRFRVQVSESGVHRPHVAGIHGRSNDGAYSLVLAGGYEDDVDHGNFFTYTGSGGRDLSGNKRTAEQSCDQKLTNTNRALALNCFAPINDQEGAEAKDWRSGKPVRVVRNVKGGKNSKYAPAEGNRYDGIYKVVKYWPEKGKSGFLVWRYLLRRDDDEPGPWTKEGKDRIKKLGLTMQYPEGYLEALANREREKENSKREEEEQQEGGFASPRTGEGEWKRKSAGGGPSRAGSPRRTSKKTKVEPYSLTAQQSSLIREDKSNAKLWNEVLASLKDRPASGSPFQLFLSKVEETFQCICCQELVFRPITTVCQHNVCKDCLDRSFRAQVFSCPACRYDLGRSYAMQVNQPLQTVLNQLFPGYGNGR

How the values were obtained:
[1] = target: T1, human UHRF1 TTD domain (residues …); assay: ITC
[2] = target: T2, human UHRF1 TTD domain (residues …); assay: ITC
[3] = target: T3, human UHRF1 TTD-PHD dual domains …; assay: ITC
[4] = target: T4, human UHRF1 TTD domain (residues …); assay: cell-based or functional assay
[5] = system: chromatin; conditions: previous study; ref Zhang et al., 2015; cited from earlier work

Molecule	binding result [1]	binding result [2]	fold weaker binding than to TTD [3] [fold]	FRET ratio of the CFP-UHRF1 (D142A/E153A)-YFP mutant, intramolecular [4]	chromatin binding of UHRF1 with K644E/K646E mutations in PBR [5]
B1	binds	binds	~3	0.52	–
B2	–	–	–	–	reduced chromatin binding of UHRF1
